According to US20090062190A1 (published 2009):

Target: LITAF (LPS-induced TNF-α factor), full length
Test: cell-based or functional assay

Sequence of LITAF (LPS-induced TNF-α factor), full length (chain, as listed by the source limits assumed): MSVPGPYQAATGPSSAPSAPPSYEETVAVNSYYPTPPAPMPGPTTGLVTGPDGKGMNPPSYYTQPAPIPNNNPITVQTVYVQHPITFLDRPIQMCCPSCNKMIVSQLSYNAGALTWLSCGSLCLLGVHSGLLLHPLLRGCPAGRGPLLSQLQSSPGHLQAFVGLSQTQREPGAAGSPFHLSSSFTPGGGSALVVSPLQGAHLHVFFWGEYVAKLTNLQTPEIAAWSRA

- TNF-promoter activity (luciferase), U2OS cells, co-transfection versus LITAF alone: 1.5 fold
- TNF-α in supernatants of transfected THP-1 cells (ELISA), versus LITAF alone: 1.8 fold
- cytokine antibody array, 'W-10' (probably IL-10), THP-1 cells co-transfected with LITAF and STAT6(B): 10 fold
- cytokine antibody array, GRO, THP-1 cells co-transfected with LITAF and STAT6(B): 2.1 fold
- cytokine antibody array, IFN-γ, THP-1 cells co-transfected with LITAF and STAT6(B): 6.2 fold
- cytokine antibody array, IL-1α, THP-1 cells co-transfected with LITAF and STAT6(B): 3 fold
- cytokine antibody array, MCP-2, THP-1 cells co-transfected with LITAF and STAT6(B): 8.5 fold
- cytokine antibody array, RANTES, THP-1 cells co-transfected with LITAF and STAT6(B): 3.2 fold
- cytokine antibody array, TNF-α, THP-1 cells co-transfected with LITAF and STAT6(B): 4 fold
B1: STAT6(B) (Signal transducer and activator of transcription), full length, aa 1-404 (other)
chain: MARRNPSPPLQRLRDWGHHHCPCHPGPGWLSTDGEHPAILCQRPVHSLTGGPNPGSCSAQKSLSQEAQGGGFPEPLQAWAGTGCSDSFLSPTSSLLPAALLSLPVCHPDVTPYFIAVLLLLPHDPCPPFPPPFLPNPRALHGCLFLLTTAEQMGKDGRGYVPATIKMTVERGVWWYGQWVGQGLVVLICRKEGWHQPLVSHMYLLPSSRDQPLPTPELQMPTMVPSYDLGMAPDSSMSMQLGPDMVPQVYPPHSHSIPPYQGLSPEESVNVLSAFQEPHLQMPPSLGQMSLSFDQPHPQGLLPCQPQEHAVSSPDPLLCSDVTTVEDSCLSQPVTAFPQGTWIGEDIFPPLLPPTEQDLTKLLLEGQGESGGGSLGAQPLLQPSHYGQSGISMSHMDLRANPSW
